# Measured values: patent US20190338026A1 (University of Texas, published 2019)
# T1: human LAIR1 extracellular domain (ECD) protein with 6 HIS tag at the C-terminus (human, UniProt Q6GTX8 22-165)
# T1 construct: Produced recombinantly in HEK293 cells; the whole entry is named here; also called LAIR1 ECD; LAIR1-ECD
# T1 chain: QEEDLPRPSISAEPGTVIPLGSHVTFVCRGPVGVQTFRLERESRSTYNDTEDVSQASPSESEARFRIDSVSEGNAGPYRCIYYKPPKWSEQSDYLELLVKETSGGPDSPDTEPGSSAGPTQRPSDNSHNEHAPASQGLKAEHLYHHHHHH
# T2: LAIR1 on LAIR1 reporter cells (human, UniProt Q6GTX8 22-165, limits assumed)
# T2 chain: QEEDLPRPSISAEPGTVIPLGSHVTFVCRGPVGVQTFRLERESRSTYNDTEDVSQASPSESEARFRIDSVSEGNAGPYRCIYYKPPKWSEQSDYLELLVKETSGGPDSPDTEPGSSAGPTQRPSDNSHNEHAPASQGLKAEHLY
# Legend:
# [1] = target: T1, human LAIR1 extracellular domain (ECD) …; assay: ELISA, LAIR1 ECD coated, mAb titrated, anti-rabbit HRP
# Description: (§1) The inventors then used a concentration titration (0-10 μg/ml) by ELISA to determine the LAIR1 monoclonal antibody (mAbs) binding to human LAIR1 ECD. […] For FIGS. 2-39, X axis indicates the antibody concentrations and Y-axis is binding signals, measured as OD (450 nm). To perform the ELISA assay, LAIR1 ECD recombinant protein was coated on high absorption 96-well plates. Serial diluted (3-fold) LAIR1 mAb was added to the coated/blocked plates and detected using goat anti-rabbit F(ab′)2 conjugated HRP as secondary antibody. All assays were repeated 3 times and the titration curves were fitted using 4-parameter fitting curve using the GraphPad software for EC₅₀ estimation.
# (§2) Serial dilutions of the LAIR1 monoclonal antibodies (IgGs or scFvs fragments), starting from […] and 3-fold titration down for 12 steps, were added to the 96-well plate for binding by incubating 45 minutes at 37° C. with a cover on the assay plate. Then the plates were washed with PBS containing Tween 20 (0.05% concentration) for 3 times and PBS one time. […] Detection was conducted by adding HRP substrate, TMB (ThermoFisher) for 10 minutes, and stopped by adding 50 μl/well of 2N H2504. The plates were read for absorbance at 450 nm using a plate reader (SpectraMax M4, Molecular Devices). Data were collected and graphed using a 4-parameter fitting curve with GrapPad Prism 7 software for EC₅₀ calculation.
# [2] = target: T1, human LAIR1 extracellular domain (ECD) …; assay: ELISA, LAIR1 ECD coated
# Description: as §1, §2
# [3] = target: T2, LAIR1 on LAIR1 reporter cells; assay: cell-based or functional assay
# [4] = target: T2, LAIR1 on LAIR1 reporter cells; assay: cell-based or functional assay
# [5] = target: T2, LAIR1 on LAIR1 reporter cells; assay: cell-based or functional assay
EC50 [1] [nM],EC50 (read off the curve) [2] [ng/mL],"GFP+% of LAIR1 reporter cells, collagen I coated, soluble Ab and K562 cells [3] [%]","GFP+% of LAIR1 reporter cells, collagen I coated, soluble Ab [4] [%]","GFP+ of LAIR1 reporter cells, Collagen I coated [5] [%]","GFP+ of LAIR1 reporter cells, Collagen I coated + K562 [5] [%]",Binder
0.05,~8,0.698,0.679,< 5,< 5,"LA-252 (antibody, V domains shown, Rabbit monoclonal IgG; Called a potential antagonist antibody) VH: EQSVEESGGRLVTPGTPLTLTCTASGFTISDYHMCWVRQAPGKGLEWIGLIRASHSTAYASWANGRFTISRTSTTVDLKITSPTSEDTATYFCARYGGSGIGCNLWGPGTLVTISS VL: ELVLTQTPASVSEPVGGTVTIKCQASQSIDSNLAWYQQKPGQPPKQLIYAVSNLASGVPSRFKGSGSGTEFTLTISDLECADAASYYCECTYYGNSYVGGFGGGTEVEIK"
0.05,~7,0.792,0.905,,,"LA-222 (antibody, V domains shown, Rabbit monoclonal IgG) VH: EQSVEESGGDLVKPGASLTLTCTASGFSFTYWICWVRQAPGKGLEWIACIYAGSSGDTYYASWAKGRFTISKTSSTTVTLQMTSLTAADTATYFCARSPDYVAWGYDLWGPGTRVTVSS VL: ELVLTQTPASVSAAVGGTVTINCQASQSIGTNLVWYQQKPGQPPKLLFYYASTLASGVPSRFRGSRSGTEYTLTISDLECADAATYYCQCIYYGGNYGHTFGGGTEVVVK"
0.04,~7,0.867,0.746,,,"LA-155 (antibody, V domains shown, Rabbit monoclonal IgG) VH: EQSLEESGGDLVKPEGSLTLTCTASGFSFNSNYWICWVRQTPGKGLEWIGCIYSGSSGDTYYASWAKGRFTISKTSSTTVTLQMTSLTAADTATYFCARGADYVYWSYGLWGPGTLVTISS VL: ELVLTQTPASVSAAVGGTLTIKCQASETIGTNLAWYQQKPGQPPKLLIYLASYLASGVSSRFKGSRSGTEFTLTISDLDCDDAATYYCQSTHFGNGHTFGGGTEVVVK"
0.08,~10,1.95,0.678,,,"LA-151 (antibody, V domains shown, Rabbit monoclonal IgG) VH: SSSVEESGGRLVTPGTPLTLTCTVSGFSLGSYAMGWVRQGPGKGLEWIGAVYGTTGYIYFATWAKGRFTISKTSTTVDLKITSPTTEDTATYFCARGYLTDSIANGFGVWGPGTLVTVSS VL: ELDLTQTPASVSEPVGGTVTIKCQASQTITNRYLAWYQQKPGQPPKLLIYQSSKLASGVSSRFKGSGSGTDFTLTISDLECADAATYYCQCTDYGSTYLGTFGGGTEVEIK"
0.08,~10,,3.19,,,"LA-117 (antibody, V domains shown, Rabbit monoclonal IgG) VH: QSVKESGGDLVKPGASLTLACTASGFSFSDGYYMCWVRQAPGKGLEWIGCIHSSSGSIYYASWAKGRFTISKTSSTMVTLQMSSLTAADTATYFCARDSESYGYNPCELWGPGTLVTISS VL: ELDLTQTPASVSEAVGGTVTIKCQASQTISNYLAWYQQKPGQRPKLLIYAASSLASGVSSRFRGSRSGTEYTLTITDLECDDAATYYCQCTYYGTTYVGGAFGGGTELEIK"
0.05,~8,,2.92,,,"LA-101 (antibody, V domains shown, Rabbit monoclonal IgG) VH: EQSVEESGGRLVTPGTPLTLTCTVSGFSLSSFHMCWVRQAPGKGLEYIGIIYPGGSTGYANWAKGRFTVSKASNTVDLKISSPTTEDTATYFCARVNYGDWINGMDLWGPGTLVTISS VL: ELDMTQTPASVSEPVGGTVTIKCQASQSIGSNLAWYQQKPGQRPKLLIYKASTLASGVPSRFKGSGSGTDFTLTISDLECADAASYYCQQAYWSGNVDNVFGGGTEVEIK"

# Further lines, the binder ahead of its results:
Binder,EC50 [1] [nM],EC50 (read off the curve) [2] [ng/mL],"GFP+% of LAIR1 reporter cells, collagen I coated, soluble Ab and K562 cells [3] [%]","GFP+% of LAIR1 reporter cells, collagen I coated, soluble Ab [4] [%]","GFP+ of LAIR1 reporter cells, Collagen I coated [5] [%]","GFP+ of LAIR1 reporter cells, Collagen I coated + K562 [5] [%]"
"LA-64 (antibody, V domains shown, Rabbit monoclonal IgG; also called mAb LA-64) VH: EQSLESGGGLITPGGTLTLTCTASGFTVTRYYMNWVRQAPGKGLEWIGYIYASSKTYYANWAKGRFTISKTSTTVDLKMTSLTAEDTGTYFCARGGVGNSGLNLDLWGPGTLVTISS VL: ELVLTQTPASVSEPVGGTVTIKCQASQSIGSWLAWYQQKPGQPPKLLIYQASRLASGVSSRFGGSGSGTEFTLTISDLECADAATYYCQQAEYSGDVENTFGGGTEVVVK",0.09,~10,2.29,1.5,,
"LA-87 (antibody, V domains shown, Rabbit monoclonal IgG; also called mAb LA-87) VH: QSVKESGGRLVTPGGSLTLTCTVSGFSLSNYNIQWVRQAPGKGLEWIGFISPAGNGYYASWAKGRFTISKASSTTVELKMTSLTASDTATYFCARHWDLWGPGTLVTISS VL: ELVLTQTASSVSAAVGGTVTISCQSSQSVYSNYLSWFQQKPGQPPKELVYWTSTLQSGVPSRFSGSGSGTQFTLTISDLECDDAATYYCLGGYSGWFYAFGGGTEVVVK",0.06,~10,0.844,1.45,,
"LA-95 (antibody, V domains shown, Rabbit monoclonal IgG; also called mAb LA-95) VH: EQSLKESGGRLVTPGGSLTLTCTASGFDINNYNIQWVRQAPGKGLEWIGFISPAGNEYSATWAKGRFTIYKTSSTTVELKMTSLTASDTATYFCARHWDSWGPGTLVTISS VL: ELVMTQTESPVSAAVGGTVTISCQSSQSVYSNRLSWFQQKPGQPPKELVYWTSTLQSGVPSRFSGSGSGTQFTLTISDLECDDAATYYCLGGYSGNIYVFGGGTEVEIK",0.04,~7,0.595,0.711,,
"LA-63 (antibody, V domains shown, Rabbit monoclonal IgG; also called mAb LA-63) VH: EQSVEESGGRLVAPGGSLTLTCTVSGFSLSSYAMSWVRQAPGKGLEWIGVMYNSGSAYYASWAKGRFTISRTSTTVDLKVTSLTTEDTATYFCGRGGSNSAWGDDLWGPGTLVTVSS VL: ELDMTQTPASVSEPVGGTVTIKCQASQSISIRYFSWYQQKPGQPPKLLIYGASTLASGVPSRFKGSGSGTDFTLTISDLECADAATYYCQDSNYNSNYFGAFGGGTEVVVK",234,,1.31,2.42,,
"LA-30 (antibody, V domains shown, Rabbit monoclonal IgG; also called mAb LA-30) VH: EQSVESGGGLVQPEGSLTLTCKASGFDFSRNAICWVRQAPGKGPEWIACYSFSSSATYYASWAKSRFTISKTSSTTVTLQMTSLTAADTATYFCARVDIYGGSRYWGMWGPGTLVTISS VL: ELVMTQTPASVEAAVGGTVTIKCQASQNIGGDLAWYQQKPGQPPKLLIYRASTLESGVPSRFSGSGSGTEFTLTISDLECADAATYYCQDTDIGSGAFGGGTELEIK",0.07,~10,1.94,1.51,,
"LA-35 (antibody, V domains shown, Rabbit monoclonal IgG; also called mAb LA-35) VH: EQSVKESGGRLVTPGTPLTLTCTVSGIDLSYYSMGWFRQAPGKGLEWIGVISSSDSTYYANWAKGRFTISKTSTTVDLKIAGPTTEDTATYFCARVLANSYNAFNLWGPGSLVTISS VL: ELDLTQTPASVSEPVGGTVTIKCQASQSVGSRLAWYQQKPGQPPKLLIYKASTLASGVPSRFKGSGSGTQFTLTMSDLECADAATYYCQCTNISSAYLGAFGGGTEVEIK",0.08,~10,1.13,1.1,,
"LA-37 (antibody, V domains shown, Rabbit monoclonal IgG; also called mAb LA-37) VH: EQSLEESGGDLVKPGASLTLTCKASGFSFSSSEFMCWVRQAPGKGLEWIACIYGGLSDDTYFASWAKGRFTISKTSSITVTLQMTSLTAADTATYFCARSCDVNYYGFDPWGPGTLVTISS VL: ELVLTQTPAPVSAAVGDTVTIKCQASQNKGTNLAWYQQKPGQPPKLLIYLSSTLASGVPPRFKGSRSGTEYTLTISDLECADAATYFCQSTYYGSNGLTFGGGTEVEIK",0.05,~8,1.08,0.86,,
